From publication PMC4586043

Experiments:
[1] = biological target: BG505 SOSIP.664 trimer produced in 293S cells, deglycosylated by EndoH (HIV-1 isolate BG505); assay: ITC; Auto-iTC200; trimer in the cell at 4.0–5.0 μM, 3BC315 Fab in the syringe at ~20 × the molar concentration of the trimer; single-site binding model
[2] = biological target: His-tagged BG505 SOSIP.664 trimer produced in 293S cells, EndoH-deglycosylated (HIV-1 isolate BG505); assay: SPR; Biacore 3000, 25 °C, HBS-EP; His-tagged trimer captured by anti-histidine antibody on CM5 to 500 RU; 3BC315 IgG or Fab titrated down in twofold steps from 1 μM; IgG fitted with a bivalent, Fab with a Langmuir model
[3] = biological target: BG505 SOSIP.664 trimer produced in 293S cells (HIV-1 isolate BG505); assay: ITC
[4] = biological target: His-tagged BG505 SOSIP.664 trimer produced in 293T cells (HIV-1 isolate BG505); assay: SPR; set-up: kon1: unit not given here
3BC315 Fab = assay: ELISA; conditions: read off a plot
2G12 = assay: ELISA; conditions: read at the highest antibody concentration, 1 µg/ml 2G12, read off a plot
3BC176 IgG = assay: ELISA; conditions: parent: est. 0.92; read off a plot
PGT145 = assay: ELISA; conditions: read at the highest antibody concentration, about 15 µg/ml PGT145; parent: est. 0.87; read off a plot
[5] = biological target: JR-FL Env on virus (HIV-1 isolate JR-FL) (UniProt Q75760)
[6] = biological target: BG505 Env on virus (HIV-1 isolate BG505)

3BC315 Fab
Kd [1]: 167 nM | stoichiometry N [1]: 1.71 | Kd [2]: 7.1 nM | koff [2]: 0.00059 s⁻¹ | stoichiometry N [2]: 1.9 | Kd [3]: 186 nM | stoichiometry N [3]: 1.17

3BC315 IgG (antibody)
Kd1 [4]: < 10 nM | Kd2 [4]: 24 RU | koff1 [4]: < 1e-05 s⁻¹ | koff2 [4]: 0.0084 s⁻¹ | kon1 [4]: 4900 | kon2 [4]: 0.00034 RUs^−1 | stoichiometry N [4]: 1.1

D7324-tagged BG505 SOSIP.664 trimer produced in 293T cells N88Q
response (3BC315 Fab): 0.98 OD450 | response (2G12; parent: est. 1.2): 1 OD450

D7324-tagged BG505 SOSIP.664 trimer produced in 293T cells N625Q; N637Q
response (3BC315 Fab; read at the highest concentration, 10 µg/ml 3BC315 Fab, parent: est. 1.1): 0.93 OD450

D7324-tagged BG505 SOSIP.664 trimer produced in 293T cells W623A
response (3BC176 IgG): 0.4 OD450 | response (PGT145): 0.83 OD450 | response (2G12; parent: est. 1.25): 1.2 OD450

B1: 3BC315 IgG (antibody, V domains shown)
VH: QVQLVQSGAEMKDPGASVKVSCRASGYKFTDYYMHWVRQAPGQGLEWVGWVNTNGGFTKYGAKFQGRVTVTRDTSTNTVFLELSRLTFGDTAMYFCARPMRPVSHGIDYSGLFVFQFWGRGTMVTVSS
VL: QSALTQPASVSASPGQSITISCSGTRSDVGGYDFVSWYQQHPGKVPKLIIYEVTKRPSGIPQRFSGSKSGNTASLTISGLQADDEADYYCCSYANYDKLILGGGTKLTVL
IC50 of neutralisation of JR-FL virus (TZM-bl) after 1, 3, 6 and 22 h pre-incubation with IgG (5.84 falling to 0.83) [5]: 5.84 µg/mL | IC50 of neutralisation of BG505 virus (TZM-bl) after 1, 3, 6 and 22 h pre-incubation with IgG (1.62 falling to 0.41) [6]: 1.62 µg/mL

B2: 3BC176 IgG (antibody, V domains shown)
VH: QVQLMQSGAQLRDPGDSLKISCKASGYNFIDYHIHWVRLAPGRGLEWMGWIDPVGGITKYAGQFQGRLSLTRDTSTNTLFLELSRLTAGDTAVYFCARSMRPVDHGIDYSGLFVFHFWGRGSDVLVSS
VL: QSVLTQPASVSASPGQSITVSCTGSRNDVGGYDFVSWYQRHPGGVPKLIIYEISKRPSGIPQRFSGSRSGNTASLTISGLQDDDEADYYCCSYASYDRLIFGGGTRVSVL
IC50 of neutralisation of JR-FL virus (TZM-bl) after 1, 3, 6 and 22 h pre-incubation with IgG (0.30 falling to 0.03) [5]: 0.3 µg/mL | IC50 of neutralisation of BG505 virus (TZM-bl) after 1, 3, 6 and 22 h pre-incubation with IgG (1.93 falling to 0.33) [6]: 1.93 µg/mL
